Test results: article PMC5755574

Biological target: Alcaligenes xylosoxidans copper nitrite reductase (Alcaligenes xylosoxidans)
Assay: crystal structure; as-isolated AxNiR crystals, space group R3, one monomer in the asymmetric unit, trimer formed by crystal symmetry; SRX resting state at 1.6 Å (BL41XU, SPring-8, cryo); the SF-ROX structure (SACLA XFEL, 100 K, 1.6 Å) from the same batch of crystals has near-identical global architecture

## Alcaligenes xylosoxidans copper nitrite reductase (enzyme)
  stoichiometry N: 3
